From the supplement of paper PMC12764529
± gives the half width of the 95% confidence interval.

Tests used:
[1] = folding stability dG unfold from chymotrypsin proteolysis; higher = more stable
How it was run: (§1)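 Designed mini-proteins (under 80 residues, no cysteine) in a PA-tagged cDNA display construct were digested with trypsin and chymotrypsin. Each protease was used at 11 concentrations (threefold dilutions) plus a no-protease condition, followed by sequencing. K50 was inferred by Bayesian fitting of sequencing counts, and unfolding free energy was derived against a sequence-predicted unfolded-state K50 and a shared folded-state K50, per protease or combined. Only designs with AlphaFold2 dimer inter-PAE above 15 were kept.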

[2] = folding stability dG unfold (combined trypsin and chymotrypsin); higher = more stable
How it was run: as §1

[3] = folding stability dG unfold from trypsin proteolysis; higher = more stable
How it was run: as §1

Sequence	folding stability dG unfold [1] [kcal/mol]	folding stability dG unfold [2] [kcal/mol]	folding stability dG unfold [3] [kcal/mol]
SAGGSAPEIPTDALVRVRDPNSDKWYEATVLEARKLPGGELVYLIRLTKDGNEELVPTDLATVELKSAGGSA [r15_62_JUSTAS]	1.53 ± 0.12	1.29 ± 0.098	1.05 ± 0.08
SAGGSAGGSAGSMIEEAVEAAKASGDPDVTVDLETPEGRVTVTVTVDPATGTVTVTTSPESAGGSAGGSAGG [r17_475_JUSTAS]	2.21 ± 0.077	1.86 ± 0.091	1.21 ± 0.033
EMTEEELREKLPELSPEELEELARKLAEELGIEEVEEVEVVSVKPDGTIEVKVKLKDGEELTIEIPLEELLS [r1_435_TrROS_Hall]	2.07 ± 0.15	2.47 ± 0.22	2.8 ± 0.26
SAGGSAGGSAGKMYKLTIEKDGKEIEIIVSEDELKEIAKKLGLPPNAKIKVEKVSPEELKSAGGSAGGSAGG [r17_395_TrROS_Hall]	3.8 ± 0.14	3.27 ± 0.17	2.21 ± 0.095
SAGGSNFKPLEAEIYRNPDGKDVVQIMITFPDPNGKPFTVNIWIYPDGKIKISVYYNGKKEEIEIPSAGGSA [r2_182_TrROS]	3.57 ± 0.12	2.96 ± 0.18	1.95 ± 0.13
SAGGSAGGSGMMFELAFREIKYSPNDSVTIKAELPDGSSITIPTKKGEIKFKLPENGYVKVLGSAGGSAGGS [r12_746_JUSTAS]	-0.514 ± 0.55	-0.262 ± 0.2	-0.281 ± 0.34
SKIKIKAKDKKTNIPIDEIDIYPLEDGSYGIKIIFTFPKEKKEITIPIPKNKKIEEFIKALGLEEIEIDASA [r9_492_TrMRF]	2.33 ± 0.13	1.79 ± 0.23	1 ± 0.1
SAGGSAGGSAGGKMLLIKITTKDGREFTLEISEEEAKKLAEELKKKFPNQKIEVEIVPLKSAGGSAGGSAGG [r7_349_TrROS_Hall]	3.16 ± 0.073	3.21 ± 0.14	3.21 ± 0.18
SAGGSAGGSAGMKIEIELDENGELRIRITVYNKETKEEVEEFEFTLPLEELEEELRKLLESAGGSAGGSAGG [r11_376_TrROS_Hall]	3.62 ± 0.15	3.5 ± 0.22	3.16 ± 0.12
SAGGSAGGSAGGKATLGEDGFLVIEREVELPDGPYRPETLVIPLPELTPEEVERLLETESAGGSAGGSAGGS [r10_1096_TrMRF]	0.919 ± 0.044	1.05 ± 0.096	1.24 ± 0.13
SAGGSAGGSAGGMITVEYDPSRPVYTVTVTDPTTGKTTVIDVPRDDLEQALALAEALLKSAGGSAGGSAGGS [r10_1117_JUSTAS]	1.95 ± 0.03	1.67 ± 0.064	0.647 ± 0.046
SAMVTYDPEKGVFEAEIEVGGETLRVTVVRDPETGEVVAVVERPGSGEPVVLPLPFKSLSDVIRYAEEHSAG [r14_803_TrMRF]	2.49 ± 0.044	2.36 ± 0.11	2.3 ± 0.07
SAGGSAGGSSPPLEILDPVSATLPDGGTLTVAKAAGSYYLVTTTTYDPATGTATSTTTVVPLESAGGSAGGS [r20_15_JUSTAS]	0.827 ± 0.076	0.528 ± 0.065	0.0164 ± 0.088
SAGGSAGGSPGNYIIQIEIKFPGRKHTWHVDSPEEALEQLKNDLEKQHPNAPITDVEIEVFPLSAGGSAGGS [r12_429_TrROS]	0.155 ± 0.94	0.556 ± 0.46	0.791 ± 0.2
SAGMPKTTVETEIRFVETEEGIEAVAEVRTETETRVVVIPGHLGPEEAIEVLEKLLEEEGLELSRVEIGSAG [r5_305_TrMRF]	0.353 ± 0.038	0.542 ± 0.082	0.646 ± 0.032
SAGGRGEGTMNDPEGGRVYKSEYDPGDGQAEIEPKPVPPVPPIDAEELAEELEQKNGLPNDDVEDMLGSAGG [r13_824_TrROS]	-0.208 ± 0.44	-0.309 ± 0.27	-0.336 ± 0.084
SAGGSAGGMVKVYPIDPNTPPEAVVARLEKEFPDRPIKSVSVSTVGDVPVVTITFPDGLKVVVSSAGGSAGG [r6_492_JUSTAS]	1.43 ± 0.03	1.23 ± 0.072	0.975 ± 0.029
SAGGKGPKKIILPLKFKIKTKPNEKKSKIKFKLSLKLFPKAKKVEVKSSIKPLKNNYALLDFDIVIEASAGG [r13_872_TrMRF]	3.6 ± 0.13	3.56 ± 0.45	3.53 ± 0.23
SAGGSAGGSAGAFVGYRDEGGRYWLRTPEGELELDSEEDALEWADFLRANGIPLLSEPRPSAGGSAGGSAGG [r17_35_TrMRF]	1.59 ± 0.11	1.43 ± 0.073	1.08 ± 0.032
SAGGSAGGSPVIAVRVKRIEVTYDAATGRLTVRIEVEVDGKTYTITVPPGAEIKPGDTLLIEPSAGGSAGGS [r20_49_TrROS_Hall]	4.434 ± 0.038	4.375 ± 0.041	4.23 ± 0.098
SEAKTMSPEELKEFIEEYIEEERKKNPGKPVRIAIEDLKEKFPGFSPEELKKLLGLSEEELENGAIEIEPSA [r9_525_TrMRF]	2.38 ± 0.11	2.22 ± 0.24	1.81 ± 0.087

Sequence	folding stability dG unfold [1] [kcal/mol]	folding stability dG unfold [2] [kcal/mol]	folding stability dG unfold [3] [kcal/mol]
SAGGSITVSEDESNLTFTIPVPPTEPLTPEEVRAAAEALLAELGPDIRVLSIERLPDGGYRVEAEVRSAGGS [r8_103_JUSTAS]	1.6 ± 0.043	1.87 ± 0.037	2.08 ± 0.033
SAGGSAGGSMKTLTLEGESEEEAIEKVKEYFKKKGINYKLLKIEISEKPNGTKIYTIDIDTKKSAGGSAGGS [r12_924_JUSTAS]	2.33 ± 0.1	2.04 ± 0.2	1.19 ± 0.1
SAGGSASMTIVPVKSEEELEAYIKTKNPKVFLLPLPDGTELVVKVNVDDPSKIEKVSLSKPEEILLSAGGSA [r15_11_JUSTAS]	0.664 ± 0.16	0.622 ± 0.25	0.228 ± 0.12
SAGGSAGGSAGSMSVSVTKLPNGDYVVTTTTSETSTSTTGSTPVTTTTTTTTVTTLPSSSSAGGSAGGSAGG [r17_432_JUSTAS]	0.775 ± 0.023	1.57 ± 0.046	2.21 ± 0.048
SAGGSAGGSAGMEISTKTLPGDKYELTITLPDSKGTPITVTITFTSEEEAKKKLEEIIKKSAGGSAGGSAGG [r11_819_JUSTAS]	2.7 ± 0.11	2.27 ± 0.084	1.29 ± 0.068
SAGGSAGGKPKTYIILVIEDPENDKYLALLFDENGKLIGTAPFKSIDELLEKLPKNVKVIVLPASAGGSAGG [r6_492_TrMRF]	4.47 ± 0.11	4.24 ± 0.1	3.6 ± 0.11
SAGMKVTTFTTPTRTVTVTLTPDGTVTVTVTDPSGNPTVTAPDGTPVASTTAPDGTTTFTLDPALFAAASAG [r5_457_JUSTAS]	0.965 ± 0.1	0.896 ± 0.073	0.717 ± 0.047
SAGPWITIPFKVKSLEEARNIIREIAQTFGLPMKVEDIQVTEDQLEKNREPGDPIRITVRYPNGREIEISAG [r5_503_TrROS]	1.69 ± 0.11	1.64 ± 0.11	1.64 ± 0.065
SAGGKVVKTKEEAEKLVKEGKAEVVSVKKVKVPVNGKEKEVEVLEVKIKDKKTKKEKTIVLTKEQLKSAGGS [r16_271_TrROS_Hall]	-0.863 ± 0.27	-0.894 ± 0.78	-0.319 ± 0.36
SAGGMLLKLPLSSVEIPPDASEEEIEEAKRKLAKPKVVKVTEEVLIEENGIVKKVKVTKYVSLSVEESAGGS [r16_387_JUSTAS]	0.56 ± 0.29	0.87 ± 0.12	0.845 ± 0.082
SAGGSAGGKKNNKPKPILVKIEIINKNGKKKVFTKEFKSLEEAKKFIEKALPKGYSAKIEIIPGSAGGSAGG [r6_289_TrMRF]	3.36 ± 0.062	3.18 ± 0.29	2.25 ± 0.2
SAGEWYRMSITFDLDPDNRDQLEKIAEKIREKDGFDKIEPVEHDPSNGRVTINVYMPPEAQDKIQEALRSAG [r5_193_TrROS]	1.25 ± 0.15	1.27 ± 0.18	0.941 ± 0.1
SAGGMELVGEYEVELPDVPIRFPVYRVPEAGLVVVEAERYDPSTGEWTPLGVVPLPEGSAEEALKALSAGGS [r8_423_TrMRF]	0.334 ± 0.089	0.864 ± 0.061	1.21 ± 0.034
SAGGPKPILILPKNGKTETIPVPESMTLEEIIEIVKKAAEKYGFEKISYDPEKKVVTVYLKGKVIVTGSAGG [r13_572_TrMRF]	2.625 ± 0.017	2.27 ± 0.064	1.25 ± 0.015
SAGGSAGGSAMVVEVPVEFPDDVKVYSVEEDPELGVLLVKVKFPDREVLAVIPGDKLFIADASAGGSAGGSA [r18_212_TrMRF]	0.325 ± 0.089	0.422 ± 0.052	0.43 ± 0.016
SAGGPMPPGQKRTVTIDLEYNPENGGYRVRAYSPGGKPIEEFPFPRDNLEEFAEEFANKGVDYVEIEPSAGG [r13_765_TrROS]	0.528 ± 0.18	0.325 ± 0.16	-0.217 ± 0.19
SAGGSAGGSLSLPEGFKLSSLVSVEELPGVLRIYFLDPEKPLLYEVVYDLETGEQTVERIPIGSAGGSAGGS [r12_206_JUSTAS]	2.6 ± 0.051	2.5 ± 0.072	2.43 ± 0.065
SAGGSAGGGMRIDDIDIKQDPGNPNRYKITIKFDGPPIEFTVPPGEPLPIRFPDGKPLFEIPIDSAGGSAGG [r6_922_TrROS]	0.486 ± 0.16	0.479 ± 0.068	0.312 ± 0.062
SAGGSAGGLEIVLPREELEELIRRGEIDEVEIERSEDDLVRARPIIRPPPPLPPEVGALLRALASAGGSAGG [r6_278_TrMRF]	1.91 ± 0.088	1.56 ± 0.37	0.891 ± 0.2
SAGGSAGGSAGPNWKKYTFTIFFPGYPFRVEIERPKDGPNAPLAIKIEDPNGKPMETFPISAGGSAGGSAGG [r11_223_TrROS]	2.61 ± 0.082	2.67 ± 0.12	2.71 ± 0.11
SAGGSAKKTYIIKIPVKEIVVKDKKTGKYKPISAEELAKLLEEKTGLKVEIVEVKDGYIVIKVKEKSAGGSA [r15_55_TrROS_Hall]	2.96 ± 0.045	2.74 ± 0.13	2.26 ± 0.091
